Experimental data published in patent US20250250362A1 (Chugai, published 2025).

Biological target: T1, soluble human GPC3 (human, UniProt P51654 25-563)
T1 construct: range 25-563; whole entry named for human GPC3 (NP_001158089.1); also called glypican 3
Experiment: SPR (Biacore)

T1 sequence (P51654 25-563 limits assumed): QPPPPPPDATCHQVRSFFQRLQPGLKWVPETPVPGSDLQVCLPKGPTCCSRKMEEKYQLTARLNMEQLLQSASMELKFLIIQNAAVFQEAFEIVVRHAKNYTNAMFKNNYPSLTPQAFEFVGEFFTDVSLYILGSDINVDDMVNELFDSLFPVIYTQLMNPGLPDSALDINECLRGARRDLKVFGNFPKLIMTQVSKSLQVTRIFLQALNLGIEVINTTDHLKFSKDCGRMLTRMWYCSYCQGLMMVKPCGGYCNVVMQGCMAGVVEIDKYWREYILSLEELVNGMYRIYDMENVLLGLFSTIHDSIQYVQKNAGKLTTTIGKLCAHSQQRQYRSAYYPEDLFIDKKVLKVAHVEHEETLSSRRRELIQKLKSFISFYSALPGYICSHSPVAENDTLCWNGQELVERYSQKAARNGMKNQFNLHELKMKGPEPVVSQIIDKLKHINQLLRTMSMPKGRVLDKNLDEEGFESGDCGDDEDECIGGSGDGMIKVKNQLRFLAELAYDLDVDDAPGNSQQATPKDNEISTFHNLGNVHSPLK

- Kd: 4.54 nM
B1: H0610-G1dh/none-Hi-Kn010G3/L0129-k0 (antibody, V domains shown)
VH: QVQLVQSGAEVKKPGASVKVSCKASGYTFTDYEMHWIRQPPGQGLEWIGAIDGKTPDTAYSQKFKGRVTLTADKSTSTAYMELSSLTSEDTAVYYCTRFYSYTYWGQGTLVTVSS
VL: DIVMTQSPLSLPVTPGEPASISCRSSQSLVHSNRNTYLHWYQQKPGQAPRLLIYKVSNRRSGVPDRFSGSGSGTDFTLKISRVEAEDVGVYYCGQGTQVPYTFGQGTKLEIK
notes: one-arm
